For series [1], the target named is endogenous RelA in A549 cells (Homo sapiens, UniProt Q04206 Q04206:1-551). The series can be described thus: cell_activity; 4 uM transfected aptamer; control induction 5-fold (Gro-beta) and nearly 7-fold (TNFAIP3). The protocol: A549 cells transfected with nothing (−), 4 μM P028A1 or P028F4 aptamers were stimulated in the absence (Con) or presence of TNF. (1 h, 30 ng/ml). Total RNA was extracted and subjected to Q-RT-PCR for Gro-β (top panel) and TNFAIP3/A20 (bottom panel). Data are normalized to GAPDH and expressed as fold change relative to uninfected control. Each bar is mean±SD of triplicate determination. * p<0.05 and (4B) ChIP assay. A549 cells transfected with nothing (−), P028A1 (4 μM) or P028F4 (4 μM) were stimulated in the absence (Con) or presence of TNF (1 h, 30 ng/ml). Two-step ChIP was preformed using pre-immune IgG (IgG), or anti-RelA as the primary Abs. Immunoprecipitated DNA was subjected to quantitative PCR using primers for Groβ (top) or TNFAIP3/A20 promoters (bottom) as indicated. Data are shown as fold increase in signal relative to unstimulated A549 cells (X, ±SD of technical replicates). The study was repeated twice with similar results;
Sequence of endogenous RelA in A549 cells (Q04206 whole entry, one chain of several): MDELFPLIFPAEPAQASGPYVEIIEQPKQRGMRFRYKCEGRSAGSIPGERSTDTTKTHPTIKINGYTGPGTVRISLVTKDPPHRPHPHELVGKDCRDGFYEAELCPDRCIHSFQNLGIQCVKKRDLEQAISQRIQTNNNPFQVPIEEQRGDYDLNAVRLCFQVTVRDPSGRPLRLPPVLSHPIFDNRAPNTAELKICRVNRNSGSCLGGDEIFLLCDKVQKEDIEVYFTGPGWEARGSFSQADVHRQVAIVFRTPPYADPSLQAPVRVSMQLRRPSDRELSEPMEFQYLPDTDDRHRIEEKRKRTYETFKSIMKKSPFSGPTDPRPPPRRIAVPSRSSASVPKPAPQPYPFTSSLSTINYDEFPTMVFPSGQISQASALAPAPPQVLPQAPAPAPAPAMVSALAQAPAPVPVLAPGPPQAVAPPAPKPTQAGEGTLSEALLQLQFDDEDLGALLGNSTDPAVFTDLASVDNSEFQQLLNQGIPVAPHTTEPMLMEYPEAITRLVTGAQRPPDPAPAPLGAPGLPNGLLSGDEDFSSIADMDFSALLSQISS
Aptamer P028F4 inhibits TNFα-induced endogenous NF-κB dependent gene expression: Earlier studies selectively inhibiting NF-κB/RelA translocation identified Groβ and TNFAIP3/A20 as part of a TNFα inducible gene network downstream of NF-κB (3,4,39). […] Relative changes in Groβ and TNFAIP3/A20 transcripts were determined by Q-RT-PCR. […]

Series [2] has as its target GST-RelA(1-313) (NF-kB p65, DNA binding and IkBa interactive domain) (UniProt Q04206 Q04206:1-313). The series is described as follows: filter; variable region alone sufficient for binding; data not shown; competition and direct binding. The following applies: tags: GST; chain copies: 2. The protocol:
Binding Studies: (i) Nitrocellulose filter binding assay: Filter binding assays were performed as described (22). Initially, 70 mer oligonucleotides were commercially synthesized (IDT) to include the proximal 20 bases of each flanking primer sequence and the 30 base variable region. DNAs were 5′ end-labeled with ³²P-ATP using T4-PNK (New England Biolabs) and purified by glass bead binding using a MERMAID kit (MP Biomedicals LLC). Protein and labeled aptamer were incubated in ABB and filtered through 25 mm nitrocellulose filters. The bound material was counted in a Beckman Liquid Scintillation counter. For competition studies, binding reactions (100 μL) in ABB were incubated at RT for 20 min with 100 fold excess (10 picomoles) of unlabeled competitor DNAs, followed by the addition of 0.1 picomole of ³²P-labeled KB55 probe. After 30 min of incubation, reactions were filtered and counted. The KB55 sequence is […] (SEQ ID NO: 3) and self anneals to form a duplex. Upper and lower strands of IL8KB are […] (SEQ ID NO: 4) and […] (SEQ ID NO: 5), respectively.
Isolation of RelA(1-313) binding single stranded aptamer: Purified recombinant GST-RelA(1-313), encoding the DNA binding and IκBα interactive domain, was used to screen for high affinity ssDNA aptamers by repeated rounds of in vitro binding and enrichment. […]

Sequence of GST-RelA(1-313) (NF-kB p65, DNA binding and IkBa interactive domain) (Q04206 1-313, one chain of several): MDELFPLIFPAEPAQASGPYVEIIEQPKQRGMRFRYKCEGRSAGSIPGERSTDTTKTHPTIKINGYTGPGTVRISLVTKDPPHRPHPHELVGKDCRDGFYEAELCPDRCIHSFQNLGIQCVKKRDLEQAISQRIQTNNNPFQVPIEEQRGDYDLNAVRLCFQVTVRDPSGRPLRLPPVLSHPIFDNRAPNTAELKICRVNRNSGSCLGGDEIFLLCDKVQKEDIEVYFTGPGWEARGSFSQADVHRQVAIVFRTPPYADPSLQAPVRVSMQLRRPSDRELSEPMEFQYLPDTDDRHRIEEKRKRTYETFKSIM

B1: P028F4 (ssDNA)
DNA: GGGTAACCTTGAGTCACGAATTCAAGCGGGACAGGAGAAACACGGCATGTCAGCGAAGGTACCCAACTTACAGCTTCTGG
Turning to B1, the activity in series [1] was < 2 fold induction of Gro-beta and TNFAIP3 mRNA.

B2: P028F4 30-base variable region (ssDNA)
DNA: GCGGGACAGGAGAAACACGGCATGTCAGCG
For the molecule B2, the binding result in series [2] is given as “binds”.

The record behind these values is patent publication US20120263651, “Single Stranded DNA Aptamers Binding NF-kB/RelA” (Board of Regents, The University of Texas System, published 2012).
